Reference: the nanobody polyreactivity screen of Harvey et al. (2022)

Assay: yeast display, Sf9 membrane polyspecificity reagent, FACS + sequencing; frameworks hold sequencing errors
Summary of the method: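 Synthetic nanobody libraries on Saccharomyces cerevisiae BJ5465 were galactose-induced for 36–48 hours, stained 1 hour at 4 °C with 10% biotinylated, detergent-solubilized Sf9 membrane reagent and enriched on streptavidin microbeads. FACS then separated cells into low and high (top ~1%) gates by anti-HA (expression) and streptavidin (reagent binding) fluorescence. Genes were colony-PCR amplified, MiSeq 2 × 250 sequenced and CDR-length filtered. A clone's polyreactivity label is that of its gate of origin.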

Sequence	polyreactivity (PSR sort gate)
QVQLVESGGGLVQAGGSLRLMCAASGSTFRRNAMGWYRQAPGKERELVASISWRAGSTYYADSVKGRFTISRDNAKNTVYLQMNSLKQEDTAVYYCAASYYYYPSWEYEYWGQGTQVTVSS	high polyreactivity
QVQLVESGGGLVQAGGSLRLSCAASGFTYVVYDMGWYRQAPGKERELLAVITNSGGSTYYADSVKGRFTISRDNAKNTVYLQMYSLKPEDTAVYYCATRTPVWVNTESDYWGQGTQVTVSS	low polyreactivity
QVQLVESAGGLVQAGGSLRLSCAATGRTFYVNAMGWYRQAPGKERELVAAISSGDSSTYYADSVKGRFTSSRDNAKNTVYLQMNSLKPEDTAVYYCAAEVWVYFEYEYWGQGTQVTVSS	high polyreactivity
QVQLVESGGGLVQAGGSLRLSCAASGIIRHNAMGCYRPAPGKERELVAGISRRGGSTYYADSVKGRFTISRDNAKNTVYLQMNSLKPEDTAVYYCNARSAGSDLDYWGQGTQVTVSS	high polyreactivity
QVQLVESGGGLVQAGGSLRLSCAASGRIFSHYAMGWYRQAPGKERELVAAITSDGSTNYADSVKGRFTISRDNAKNTVYLQMNSLKPEHTAVYYCAKYVHIPYYYYLFGSYDYWGQGTQLTVSS	low polyreactivity
QVQLVESGGGLVQAGGSLRLSCAASGNTFYQYAMGWYRQAPGTERELVAAISSSGGSTYYADSVKGRFTISRDNAKKTVYLQMNSLKPEDTAVYYCATDKSYGYYYWGQGTQVTVSS	low polyreactivity
QVQLVESGGGLVQAGGRLRLSCAASGRTFGTYAKGWSRQATGKERELVAAIRSNAGSTYYADSVKGRFTISRDNAKITVYLQMNSLKPEDTAVYYCAKSYRSSRRYNYWGQGTQVNVSS	high polyreactivity
QGQLVESGGGLVQAGGSLRLSCAASGGIFDSNAMGWYRQARGKERELVAAISDSGGSTYYADSVKGRFTITRDNAKNTVYLQMNSLKTDDTAVYDCAADSDYHFLNYRFGMDYWGQGTQVTVSS	low polyreactivity
QVQLVESGGGLVQAGGSLRLSCAASGFTFYYYAMGWYRQAPGKERELVAAISTRDGNTYYADSVKGRFTISRDNAKNTVYLQMNSLKPEDTAVYYCAADYFRYYPYDYWGQGTQVTVSS	low polyreactivity
HVQLVESGGGLVQAGGSLRLSCAASGLIFKRYAIGGYRKAPGKERELVAAISYSGGSTYYEDSVKGRFTISRDYAKNTVYLQMNSLKPEDTAVYYCNAQSYRSDSAYHYKYDYWGQGTQVTVSS	high polyreactivity
QVQLVESGGGLVQAGGSLRLSCAASGSTFGGYAMGRYRQAPGKERELVAAISQSGTRTYYADSVKGRFTISRDNAKYTVYLQMNSLKPEDTAVYYCAARRLYYHPTLYYWGQGTQVTVSS	high polyreactivity
QVQLVESGGGLVQAGGSLRLSCAASGRIFGGYAMGWYRQAAGKERELVAAISRRGGSTYYADSVKGRFTISRDNAKNTVYLQMNSLKPEDTAVYYCNAVLSDQARLTRVDYDYWGQGTQVTVSS	high polyreactivity
QEQLVESGGGLDQAGGSLRLSCAASGSTFYAYAMGWSRQATGKETELVAAISSDGTNYADSVKGRFTISRDNAKNTVYLQMNCLKPEDTAVYYCAADLLLTSSQDNDYWGQGTQVTVSS	low polyreactivity
QVQLLESGGGLVQAGGSLRLTCAASGFIFDQYGMGWYRQAPGKERELVASITSTGSTYYADSVKGRFTISRDNAKNTVYLQMNSLKPEDTAVYYCATDSYDGMDYWGHGTQVTVSS	low polyreactivity
QVQLVESGGGLVQAGGSLRLSCAASGRTFNRYAMGWYRQAPGKERELVAAITRGGSTYYADSVKGRFTISRDNAQNTVYLQMNSLKPEDTAVYYCAKYVYSEGYYWGQGTQVTVSS	high polyreactivity
QVQHVETGGGLVQAGGSLRLSCAASGLAFAMGWYSQAPGTERELVASITGSGDSTYYADSVKGRFTISRDNAKNTVYLQMNSQKPEDTAVYYCGARTYYNYAPRYYYWGQGTQVTVSS	low polyreactivity
QDQLVESGGGLVQAGGSLRLSCAASGFTFYRYAMGWYRQAPGKERELVATIRNGGNTNYADSVKGRFTISRDNAKNTVYVQMNSLKPEDTAVYYCAKTVLAGMDWGQGTQVTVSS	high polyreactivity
QVQLVESGGGLVQAGGSLRLSSAASGRTFGFYAMGCYRQAHGKERELVATISSSGGSTYYADSVKGRFTISRDNAKNTVYLQMNRLTPEDTAVYYCAKVVSVWRSHYIGDYWGQGSQVTVSS	low polyreactivity
QVQLVESGGGLVQAGGSLRLSCAASGYTFPDYAMGWYRQATGKERELVAAIRSGGGTNYADSVKGRFTISRDNAKNTVYLQMNSLKPEDTAVYYCAKEWAGGLYDYWGQGTQVTVSS	low polyreactivity
QVQLVESGGVLVQAGGSLRLSCAASGSIFNYYAMGWYRQAPGKERELVAGITTSGGSTYYADSVKARFTISRDNEKNSVYLQMNSLTPEDTAVYYCAAYDYISSTYFLDDYWGQGTQVTVSS	low polyreactivity
QVQLVESGGGLVQAGGSLRLSCAASGSTFDGYALGWYRQAPGKERELVAAISKNGGRTYYADSVKGRFTISRDNAKNTVYLQMNSLKPEDTAVYYCAKDIIKYDYDYWGQGTQVTVSS	low polyreactivity
QVQLVESGGGLVQAGGSLRLSCAASGFTFARYAMGWYRQAPGKERELVAAITYSGSGTYYADSVKGRFTISRDNAKNTVYLQMNSLKPEDTAVYYCYPVTRSARSYDYWGQGTQVTVSS	high polyreactivity

Sequence	polyreactivity (PSR sort gate)
QVQLVESGGGLVQAGGSLRLSCAASGITFLNYAMGWYRQAPGKERELVAAIDTRGGRTNYADSVKGRFTISRDNAKNNVYLQMNSLKPEDTAVYYCAADPFYWYRSVRGEYWGQGSQVTVSS	low polyreactivity
QVQLVESGGGLVQSGGSLRLSCAASGITFDHYAMGWYRQAPGKERELVAAISVSGGRTYYADSVKGRFTISRDNAKNTVYLQMNSLKPEDTAVYYCAKVSQVRGFYYWGQGTQVTVSS	high polyreactivity
QVQLVESGGGLVQAGGSLRLSCAASGSIFYNAMGWYRQAPGKERELVAAISYRGGRTYYADSVKGRFTISRDNAKNTVYLQMNSLKPEDTAVYYCAADSTVGRYPYDYWGQGTQVTVSS	high polyreactivity
QVQLVESGGGLVQAGGSLRLSCAASGSTFYTYVMGGYRQAPGKERELVAAITRSGGITYYADSVKGRFTISRDNAKYTVYLQMNSLKPEDTAVYYCAKDDQTASGFDYWGQGTQVTVSS	low polyreactivity
QVQLVESGGGLVQAGGSLRLSCAASGRIFEVYTMGWYRQAPGKERELVAAIDRSTGSTYYADSVKGRFTISRDNAKNTVYLQMNSLKPEDTAVYYCAARGTFLGTRPLGRFDYWGQGTQVTVSS	low polyreactivity
QVQLVESGGGLVQARGSLRLSCAASGSTFVQNAMGWYRQAPGKEREFVAAIRVSGDNTYYADSVKGRFTISLDNAKNTVYLQMNSLKPEDTAVYYFAATGTFVGSVDYWGQGTQVTVSS	low polyreactivity
QVQLVESGGGLVQAGGSLRLSCAASGSTFNAYVMGWYRQAPGKERELVAAITRGGSTNYADSVKGRFTISRDNAKNTVYLQMNSLKPEDTAVYDCAARGPWVIPYDYWGQGTQVTVSS	low polyreactivity
QVQLVESGGGLVQAGGSLRLSCAASGRIFKVYAMGWYRQAHGKEREMVAAITSRGGSTYYADSVKGRFTISRDNSKNTVYLQMNSLKPEDTAVYYCAAARGLPSNKYYYWGQGTQVTVSS	high polyreactivity
QVQLGDSGGGLVQAGGSLRLICAASGLTIPDNTMGWYRQAPGKERELVSAIDWSGGGTDYADSVKGRFTISRDNAKNTVYLQMNSLYPVDTAVYYCATSWYIYPYDDWGQGTQVTVSS	low polyreactivity
QVQLVESGGGLVQAGCSLRLSCAASGRTFYTVYARGWYRQAPGKERELVAAITKDGTTTYYADSVKGRFTISRDNAKNTVYIEMNSLKQEDTAVYYCNADVSQPWGGGEYNYWGQGTQVTVSS	high polyreactivity
QLQLVDSGGGLVQAGGSLRLSCAASGKTISSYAMGWYRQAPGKEREFVAAISRGARTYYADSVKGRFTISRDNAKNTVYLQMNSLKPEDTAVYYCATRWPHYGGYYYWGQGTQVTVSS	high polyreactivity
QVQLVESGGGLVQAGGSLRLSSAASGRIFKRYTMGSYRQAPGKERELVAANTKRADRTNYADSVNGRFTISRDNAKNTVYLQMNSLKAVDTAVYYCNAEGQNDHPSNGYISYNYDYWGQGTQVTVSS	low polyreactivity
QVQLVESGGGLVQAGGSLRLSCAASGITFSGYAMGWYRQAPGKERDFVAGISYSGGSTYYADSVKGRFTISRDNAKNTVYLQMNSLKPEDTAVYYCAAYFGHYWRYYYWGQGTQVTVSS	high polyreactivity
QVQLVESGGGLVQAGGSLRLTCAASGSTFYIYAMGWYRQAPGKERELVAAISQGGGSTSYADSVKGRFTISRDYAKNTVYLQMNSLKPEDTAVYYCAARRASRVRGKEGGYWGQGSQVTVSS	high polyreactivity
QVQLVESGGGLVQAGGSLRLICADSGRIVPGYAMGWYRQAPGKERELVAAISTNGGRTYYADSVKGRFTISRDNAKYTVYFQRNSLKPEDTAVYYCNAARAVYTQKRFDSWGQGTQVTVSS	high polyreactivity
QVQLVESGVGLVQAGGSLRLSCAATGRIFDLYAMGWYRQAPGKEREFVAAISGRGGSTYYADSVKGRFTISRDNAKNTVYLEMNSLKPEDTAVYYCNAKRSLYGRYGYWGQGSQVTVSS	high polyreactivity
QVQLVESGGGLVQAGGSLRLTCAASGGTFRRYTMGWYRQAPGKERELVAVISRSGGSTYYADSVKGRFTISRDNAKNTVYLQMNRLKPEDTAVYYCAVVYYNGYDWGQGTQVTVSS	high polyreactivity
QVQLVESGGGLVQAGGSLRLSCAASGSTFVPNAMGWYRQAPGKERELVAAITSGGITNYADSVQGRFTISRDNAKNTVYLQMNSLKPEDTAVYYCAVLYYILAPGYDYWGQGTQVTVSS	low polyreactivity
QVQLVESGGGLVQAGGSLRLSCAASGSIFNYNMGWYRQAPGKERELVAAITSSGGSTYYADSVKGRFTISRDNAKNTVYLQMNSLKPEDTAVYYCAAPISRSAGWDSYDYWGQGTQVTVSS	low polyreactivity
QVQLVESGGGLVQAGGSLRLSCAASGSIFGSYAMGWYRQAPGKERELVAGITRRSGSTYYADSVKGRFTISRDNAKNTVYLQMNSLKPEDTAVYYCAADTWFGMDYWGQGTQVTVSS	high polyreactivity
QVKLVESGGGLVQAGGSLRLSCAASGFTFNGYGMGWYRQAPGKERELVAAISRSSGGTYYADSVKGRFTISRDNAKNTVYLQMNSLKPVDTAVYYCAATGYRTATPSWRYYYWGQGSQVTVSS	high polyreactivity
